Experimental findings from US20120034651A1 (JAPAN SCIENCE AND TECHNOLOGY AGENCY, published 2012) are described below.

The data set concerns the molecule itself. Nature of the data set: not described in this filing.

B1: 36-38A TCL1 (other, human, UniProt P56279 1-114, looked up)
chain: MAECPTLGEAVTDHPDRLWAWEKFVYLDEKQHAWLAAAIEIKDRLQLRVLLRREDVVLGRPMTPTQIGPSLLPIMWQLYPDGRYRSSDSSFWRLVYHIKIDGVEDMLLELLPDD
In the case of B1, the binding result was “no binding”.
